In patent US20060257955:

Target: T1, labeled peptide ecot2 (T2), Dabcyl-KVSRRRRRGGD-Edans (not fully specified)
T1 chain: KVSRRRRRGGD

B1: E. coli outer membrane protease OmpT (protein)
chain: STETLSFTPDNINADISLGTLSGKTKERVYLAEEGGRKVSQLDWKFNNAAIIKGAINWDLMPQISIGAAGWTTLGSRGGNMVDQDWMDSSNPGTWTDESRHPDTQLNYANEFDLNIKGWLLNEPNYRLGLMAGYQESRYSFTARGGSYIYSSEEGFRDDIGSFPNGERAIGYKQRFKMPYIGLTGSYRYEDFELGGTFKYSGWVESSDNDEHYDPGKRITYRSKVKDQNYYSVAVNAGYYVTPNAKVYVEGAWNRVTNKKGNTSLYDHNNNTSDYSKNGAGIENYNFITTAGLKYTF
- protease assay (cleavage of substrate T2, relative fluorescence), buffer with 5% fetal bovine serum: detection of the presence of E. coli in the E. coli sample occurred in the presence of FBS
- protease assay (cleavage of substrate T2, relative fluorescence), simulated wound fluid buffer with 5% bovine serum albumin: the protease reactivity of the E. coli sample was not affected by the simulated wound fluid buffer
